Measured values reported in publication PMC4661071.

Columns and labels:
[1] = target: EPCR R81A on stably transfected CHO745 cells (UniProt Q9UNN8); experiment: flow cytometry on cells
[2] = target: wild-type EPCR on stably transfected CHO745 cells (UniProt Q9UNN8); experiment: flow cytometry on cells
[3] = target: recombinant soluble EPCR (extracellular region, residues 18–210), biotinylated (UniProt Q9UNN8); experiment: BLI

Substance: Var07CIDRα1.4 recombinant protein (domain or fragment)
- decrease of binding relative to wild type EPCR [1]: 80%
- MFI of Fl-APC on the cells with 100 µg/ml of the CIDR domain (1329 without) [2]: 385
- double positive cells (CIDR and Fl-APC) at 100 µg/ml of the CIDR domain [2]: 28%

Substance: Var19CIDRα1.1 recombinant protein (from UniProt A3R6S3 1-3373) (domain or fragment)
- decrease of binding relative to wild type EPCR [1]: 90%
- MFI of Fl-APC on the cells with 250 µg/ml of the CIDR domain (1329 without) [2]: 746
- double positive cells (CIDR and Fl-APC) at 250 µg/ml of the CIDR domain [2]: 69%

Substance: Var06CIDRα1.1 recombinant protein (domain or fragment)
- MFI of Fl-APC on the cells with 250 µg/ml of the CIDR domain (1329 without) [2]: 429
- double positive cells (CIDR and Fl-APC) at 250 µg/ml of the CIDR domain [2]: 62%
- Kd [3]: 98 nM

Substance: activated protein C (APC), unlabeled (from UniProt P04070 43-197; P04070 43-197) (enzyme)
- mean fluorescence intensity (MFI) of APC labeling, without CIDR domains [2]: 994
- percent of CHO745-EPCR cells labeled for APC, without CIDR domains [2]: 76%

Substance: fluorescein-labelled activated protein C (Fl-APC) (from UniProt P04070 43-197; P04070 43-197) (enzyme)
- MFI of Fl-APC, without CIDR domains [2]: 1330
- percent of cells that bound 50 µg/ml Fl-APC, without CIDR domains [2]: 78%
